From patent US5834597 come the findings set out here.

Assay [1] concerns the target FcRII.
In assay [2] the target is human CD3 antigen on T cells (human). Nature of the assay: flow cytometry competition on human T cells, FITC-conjugated murine OKT3 as tracer. (In general: A flow cytometer gives signals particle by particle.)
Assay [3] shares this target. Put plainly: competition with 125I-labelled mouse M291 on IL-2-activated human T cells, method of Berzofsky and Berkower.

In assay [1], “chimeric OKT3 IgG2 (from UniProt P01859-1) (antibody)” came in with a specific lysis of 51Cr-labeled K562 cells by retargeted T cell blasts (reverse lysis) of less than 32%. In assay [2], this molecule returned an avidity, fold compared to that of the chimeric IgG1 of 2 to 3 fold.

The molecule “humanized M291 IgG1 (from UniProt P01857-1) (antibody)” gave a Ka in assay [3] of 1.6e+09 M⁻¹.

B1: mouse M291 antibody (antibody, V domains shown)
VH: QVQLQQSGAELARPGASVKMSCKASGYTFISYTMHWVKQRPGQGLEWIGYINPRSGYTHYNQKLKDKATLTADKSSSSAYMQLSSLTSEDSAVYYCARSAYYDYDGFAYWGQGTLVTVSA
VL: QIVLTQSPAIMSASPGEKVTMTCSASSSVSYMNWYKQKSGTSPKRWTYDTSKLASGVPARFSGSGSGTSYSLTISSMEAEDAATYYCQQWSSNPPTFGSGTKLEIK
The molecule B1 displayed a Ka in assay [3] of 1.6e+09 M⁻¹.
